{"source": "paper PMC4414354", "about": "“The Pentameric Nucleoplasmin Fold Is Present in Drosophila FKBP39 and a Large Number of Chromatin-Related Proteins” (Journal of Molecular Biology, 2015)", "proteins": {"B1": {"name": "FKBP39 NPL domain (N-terminal nucleoplasmin-like domain of Drosophila FKBP39, residues 1-92) (domain or fragment, Drosophila melanogaster)", "chain": "QGAMAMFWGLNMKPERKYSQTIIKSFHISGVALDKGQEAKLYLAAEKQEYIVATVTKAIPQVALDLNFSKGDRIMFYTAGDASVSLLGYLHDIDSGS", "notes": "3-4 additional amino acids left at the N-terminus after chymotrypsin cleavage, printed as [F]QGA: with or without the leading F; second amino acid changed from Ser to Ala for the NcoI cloning site; dipeptide from the BamHI site at the C-terminus; Deuterated or otherwise isotope-labelled samples were used for SANS and NMR; The structure was deposited at the PDB; also called N-terminal domain of …"}, "B2": {"name": "Fpr4 NPLΔloop (S. cerevisiae Fpr4 amino acids 1-168 with the β4-β5 loop deleted) (domain or fragment, Saccharomyces cerevisiae, UniProt Q06205 1-168, looked up)", "chain": "MSDMLPLATYSLNVEPYSPTPALNFKIPVTIRITMAAIDPEPFDDDKKPSTLRIIKRNEIDDEFEECVLLTLSPKGQYQQALDITIAPEEDVQFVVTGSYTISLTGNYVKHPF", "notes": "Fpr4, Saccharomyces cerevisiae, amino acids 1-58 joined to 114-168 by overlap deletion PCR; The construct contains a C-terminal unstructured tail seen in the SAXS model; also called Fpr4Δloop; Fpr4 NPL domain; source: E. coli BL21 (DE3), purified"}, "B3": {"name": "Arabidopsis thaliana type 2 histone deacetylase HD2 NPL domain (HD2a, amino acids 1-112) (domain or fragment, UniProt Q56WH4 1-112, looked up)", "chain": "MEFWGVAVTPKNATKVTPEEDSLVHISQASLDCTVKSGESVVLSVTVGGAKLVIGTLSQDKFPQISFDLVFDKEFELSHSGTKANVHFIGYKSPNIEQDDFTSSDDEDVPEA", "notes": "type 2 histone deacetylase (printed as HD2a), Arabidopsis thaliana, amino acids 1-112; also called Arabidopsis NPL construct; A thali; source: E. coli BL21 (DE3), purified; copies: 10"}}, "key": {"[1]": {"target": "the molecule itself", "assay": "SANS; deuterated FKBP39 NPL, 2.0-10.0 mg/mL, 20 mM 4-morpholineethanesulfonic acid pH 6.0, 25 mM NaCl, 20 °C; bead model fitted with 5-fold symmetry"}, "[2]": {"target": "the molecule itself", "assay": "SEC; S200 or S75 120-mL column in 20 mM Tris-HCl pH 8.0, 150 mM (salt not given), 2 mM β-mercaptoethanol; apparent molecular weight"}, "[3]": {"target": "the molecule itself", "assay": "SAXS; Fpr4Δloop, 1.0-4.0 mg/mL, 50 mM Hepes pH 7.5, 100 mM NaCl, 11 °C, beamline X33 (EMBL/DESY Hamburg); P5 symmetry"}, "[4]": {"target": "the molecule itself", "assay": "SAXS; HD2 NPL 1.0-5.0 mg/mL and FKBP39 NPL 1.0-20.0 mg/mL, 50 mM Hepes pH 7.5, 100 mM NaCl, 11 °C, ESRF BioSAXS beamline ID14eh3; FKBP39 modelled with P5, HD2 with P25 symmetry"}}, "data": [{"protein": "B1", "values": [{"measurement": "stoichiometry N", "setting": "[1]", "value": 5}, {"measurement": "stoichiometry N", "setting": "[2]", "value": "~5"}]}, {"protein": "B2", "values": [{"measurement": "stoichiometry N", "setting": "[3]", "value": 5}]}, {"protein": "B3", "values": [{"measurement": "stoichiometry N", "setting": "[4]", "value": 10}]}]}
